Experimental data: the DeepSol protein solubility set

assay: soluble on expression in E. coli; label from the status in PepcDB or PDB records

Row | Sequence | soluble on expression in E. coli
1 | SLPGKLALKLDPTILKHLAKNYDVIVITGTNGKTLTTALTVKVLREQYPDILTNPSGSNMKQGIVTTFLRAPKAHQKPLAVLEVDEANVIMVTKYITPKAFVFTNIFRDQMDRYGEIYTTYQKILDGVALAPEATIIANGDLPLFNAKQLPNPILYYGFDYQPDHDQQAPANTDGLLCPRCQHILRYHSRTYSNMGKYYCPHCGFERPQLTYKLNALTAMTPTSSDFEINGQAMHLNIGGQYNIYNALAAYAVGRFMDVTPAKIAHALSDNDEQV | not soluble
2 | SLPKLHMFYLGGNAGRSNIEVHDIQFAVCDDYREAVPALKAAWFGDADKIHIDGWQVVEWADGYDIAVSETPKTKMPSENAPRLYFANVGGYRAGQLAEAHAFGLFAAATPAEAKQKALQTLLTDSYVQQHKDNLKDVDNLLALDRIGNFHIRLTPNPHGKPAEIGFQGYLPI | soluble
3 | SLPTIIGLAAVARSGKDTVASMLMEHPEVATYALADPLKAGCQAIFGLSDAEAWSDEAKEKTIDLWGLSPRQLFQRAGTEWLRDHNADHWLLRADRQLNHKPVEPRPVSATELASPSASIWLGVQAFWGLTEAQTWQDDLRAAEDPFWNITPKEMFAIVDRYLSRDFPSYVSTRSKRAISTPTRPLTNAAGKSIFIIKDIRYENEAAFWRSHNGVIWHITRNNAIKVQSHSSEDGIEFRNGDISIENNDTIEELRKKVESAWSCVRVD | soluble
4 | SLRPIPYLPNMIGLITGRASAAERDVTTVASARWPAARFAVRNVAVQGPNAVGQIVEALRELDRDPDVDVIVLARGGGSVEDLLPFSDETLCRAIAACRTPVVSAVGHEPDNPLCDLVVDLRAATPTDAAKKVVPDTAAEQRLIDDLRRRSAQALRNWVSREQRAVAQLRSRPVLADPMTMVSVRAEEVHRARSTLRRNLTLMVAAETERIGHLAARLATLGPAATLARGYAIVQTVAQTGPEGGSEPQVLRSVHDAPEGTKLRVRVADGALAAVSEGQTNGL | soluble
5 | SLRRVLMLEGCAQPTLSPNTNAATARVLDRLGISVMPANEAGCCGAVDYHLNAQEKGLARARNNIDAWWPAIEAGAEAILQTASGCGAFVKEYGQMLKNDALYADKARQVSELAVDLVELLREEPLEKLAIRGDKKLAFHCPCTLQHAQKLNGEVEKVLLRLGFTLTDVPDSHLCCGSAGTYALTHPDLARQLRDNKMNALESGKPEMIVTANIGCQTHLASAGRTSVRHWIEIVEQALEKE | soluble
6 | SLRSIMTPRGEISWVDAEQSEDEIRRQLLSSPHSLFPVCRGELDEIIGIVRAKEMLVALESGENVAALASASPAIVVPETLDPINLLGVLRRARGSFVIVTNEFGVVQGLVTPLDVLEAIAGEFPDADETPEIVIDGDGWLIKGSTDLHALQQALGLDPLINDDEDIATVAGLVISANGHIPRIGDVVSLPPLHFTVVEANDYRV | soluble
7 | SLRSLLTRRTIAIEGCCHGELDAIYSSLARLEEMHKMKVDLLICCGDFQFLACPPKYRDLRDFPAYFRGEKEAPCLTVFVGGNHEAPTVLRELYYGGWVAPKIFYLGHAGVVNVGGVRIAGLSGIFKSQDYRKGYFERPPYTEDTMRSAYHVREFEIAKLNRELTGRVDIVVTHDWPEGIYDFGDKTELIRQKPFLEKDIQAHELGNPHSMELLKKLKPAFWFAAHLHTRFAAVYVHPGPEGKATRFLALDKVLPRREFLQILEVEPLLPAGYVQQLSPGISRRSPTLCYDEEWLAILRANQQVLPVSRFPQKSCLVTKATADDLATVKKNLASLGLR | soluble
8 | SLSIYSFSQITRSLFLSNGVAANDKLLLSSNRITAIVNASVEVVNVFFEGIQYIKVPVTDARDSRLYDFFDPIADLIHTIDMRQGRTLLHCMAGVSRSASLCLAYLMKYHSMSLLDAHTWTKSRRPIIRPNNGFWEQLINYEFKLFNN | not soluble
9 | SLTPLSAITVRSMEGPPTVQQQSPSVIRQSPTQRRKTSTTSSTSRAPPPTNPDASSSSSSFAVPTIHFKESPFYKIQRLIPELVMNVEVTGGRGMCSAKFKLSKADYNLLSNPNSKHRLYLFSGMINPLGSRGNEPIQFPFPNELRCNNVQIKDNIRGFKSKPGTAKPADLTPHLKPYTQQNNVELIYAFTTKEYKLFGYIVEMITPEQLLEKVLQHPKIIKQATLLYLKKTLREDEEMGLTTTSTIMSLQCPISYTRMKYPSKSINCKHLQCFDALWFLHSQLQIPTWQCPVCQIDIALENLAISEFVDDILQNCQKNVEQVELTSDGKWTAILEDDDDSDSDSNDGSRSPEKGTLGEGAAALEHHHHHH | soluble
10 | SLYIEMVDETGQVSKEMLQQTQEILEFAAQKLGKEDKEMAVTFVTNERSHELNLEYRDTDRPTDVISLEYKPELEIAFDEEDLLENPELAEMMSEFDAYIGELFISIDKAHEQAEEYGHSFEREMGFLAVHGFLHINGYDHYTPEEEAEMFGLQEEILTAYGLTRQ | soluble
11 | SMCPGCGCGRIIHLGLGTEQVEAYVREHFPHARVDRMDRDTTARRGGHARILRKVAERQTDILIGTQMVAKGHDFPGITLVGILSVESTLNIPDYRSAERTFQLVTQLIGRAGRGDDPGRVLIQSLNP | not soluble
12 | SMEEKLENEPDFQYIPEKAPLDSVHQDDHSLRESMIQLAEGLITGTVLTQFDQLYRKKPGMTMSCAKLPQNISKNRYRDISPYDATRVILKGNEDYINANYINMEIPSSSIINQYIACQGPLPHTCTDFWQMTWEQGSSMVVMLTTQVERGRVKCHQYWPEPTGSSSYGCYQVTCHSEEGNTAYIFRKMTLFNQEKNESRPLTQIQYIAWPDHGVPDDSSDFLDFVCHVRNKRAGKEEPVVVHCSAGIGRTGVLITMETAMCLIECNQPVYPLDIVRTMRDQRAMMIQTPSQYRFVCEAILKVYEEGFVKPLTTSTNKLT | soluble
13 | SMEVARAARLAQIFKEICDGIISYKDSSRQALAAPLLNLPPKKKNADYYEKISDPLDLITIEKQILTGYYKTVEAFDADMLKVFRNAEKYYGRKSPVGRDVCRLRKAYYNARHEASAQIDEIVGET | soluble
14 | SMFNNELMADVHFVVGPPGATRTVPAHKYVLAVGSSVFYAMFYGDLAEVKSEIHIPDVEPAAFLILLKYMYSDEIDLEADTVLATLYAAKKYIVPALAKACVNFLETSL | soluble
15 | SMRPQPGDGERRYREASARKKIRLDRKYIVSCKQTEVPLSVPWDPSNQVYLSYNNVSSLKMLVAKDNWVLSSEISQVRLYTLEDDKFLSFHMEMVVHVDAAQAFLLLSDLRQRPEWDKHYRSVELVQQVDEDDAIYHVTSPALGGHTKPQDFVILASRRKPCDNGDPYVIALRSVTLPTHRETPEYRRGETLCSGFCLWREGDQLTKVSYYNQATPGVLNYVTTNVAGLSSEFYTTFKACEQFLLDNRNDLAPSLQTL | soluble
16 | SMRYRQITIPRGKDGFGFTICCDSPVRVQAVDSGGPAERAGLQQLDTVLQLNERPVEHWKCVELAHEIRSCPSEIILLVWRMVPQVKPGPD | soluble
17 | SNAEERLKMSTTTSTQDSGLLKVLLPPFEKKNNVKVDVIAVGTGQALKLGEAGDVDVVFVHARKLEDKFVADGFGVNRKDVMYNDFVIVGPKNDPAGIAKAKTAAEALKLLATKGATFISRGDKSGTHTKELDLWKSAGVDPKGNWYVEAGQGMGPVITMATERRAYTLTDRGTYNAFKGAKTDLVILFQGEKGLFNPYGIMAVNPKKFPHVKYDLAMKLIDYVTGPEGLKIISDY | soluble
18 | SNAKNRLGTKALNFTYTLDSGVKGTLYQFPAEYTLLFINNPGCHACAEMIEGLKASPVINGFTAAKKLKVLSIYPDEELDEWKKHRNDFAKEWTNGYDKELVIKNKNLYDLRAIPTLYLLDKNKTVLLKDATLQKVEQYLAE | soluble
19 | SNAMADKIKVGLLGYGYASKTFHAPLIMGTPGLELAGVSSSDASKVHADWPAIPVVSDPQMLFNDPSIDLIVIPTPNDTHFPLAQSALAAGKHVVVDKPFTVTLSQANALKEHADDAGLLLSVFHNRRWDSDFLTLKTLLAEGSLGNVVYFESHFDRYRPEIRQRWREQAGAGGGIWYDLGPHLLDQALQLFGLPETLNVDLGMLRPGSQSVDYFHAVLSYPGQRVVLHSTVLAAAETARYIVHGTQGSYIKFGVDPQEDRLKAGERLPQADWGYDMRDGIVTLSHDNVLTEKPLLTLPGNYPAYYAGIRDAIWGTAPNPVPATEAIKVMELIELGIASDQQKKALPIIAKN | soluble
20 | SNAMKADILLVSHSKMITDGIKEMIEQMNASEEITIHSLGGTSDGSLGSDPMKIIDTINEADSDREFLIFADLGSAVLSSELAFDMLEEDQQKHYHLVDAPLVEGAFASAITAGVSDDLTQILAEAQNAGKKGWN | soluble
21 | SNAMKEALATGSEAWWRTKTGPEWIREKDGNYRVTFWWRDPQGNETHSPIRRVWVYITGVTDHHQNAQPQTMARIAGTDVWRWSTALSANWRGSYCFIPTERDDVFAAFAPGETPDRNVLREGWRQLLPQAIADPLNSQSWRGGRGHAVSALEMPDAPLQPGWDRPETPYSPPLMMQWHSERLGNSRRVWILTTGDEAPEERPLAILLDGQFWAENMPVWPALASLTHQRLLPGAVYLLIDAIDTQHRSQELPCNADFWLAVQQELLPQVRAVTPFSDDAGRTVVAGQSFGGLSALYAGLNWPTRFGCVLSQSGSFWWPHRITPPEGEVITRLKTGALCARGLRIVLEAGVREPIVFQANQALYAQLNTSQQSIFWRQVDGGHDALCWRGGLTQGLMLLWQPLIDTL | soluble
22 | SNAMKIVIAPDSYKESLSALEVATAIEQGFREIWPDADYLKLPLADGGEGTVEAMVEATAGRIVHVEVTGPLGHRVNAFYGLSGDARSAFIEMAAASGLEQVPPAQRDPLKTTSWGTGELIRHALDAGVEHIIIGIGGSATNDGGAGMVQALGARLRDAQGNDIAQGGIGLETLASIDISGLDKRLSACHIEVACDVTNPLTGKEGASAVFGPQKGATPEMIERLDTALTRYAHLIARDLHVDVLDLAGGGAAGGMGAALYAFCGAQLRRGIEIVTDALHLEACLADADLVITGEGRIDSQTIHGKVPIGVANIAKRYNKPVIGIAGSLTADVSVVHEHGLDAVFSVIYTICTLEDALKNASENVRMTARNVAATLKAGQQLR | soluble
23 | SNAMKLYIYDHCPFCVKARMIFGLKNIPVELNVLQNDDEATPTRMIGQKMVPILQKDDSRYLPESMDIVHYVDNLDGKPLLTGKRNPAIEEWLRKVNGYVNQLLLPRFAKSAFDEFSTPAARQYFIRKKEASSGSFDNHLAHSAGLIKKIGDDLRLLDKLIVQPNAVNGELSEDDIHLFPLLRNLTLVAGIHWPTKVADYRDNMAKQTQINLLSSMAI | soluble
24 | SNAMKPENKIPVLTRLSDEMTAVVNFQQPGLPPWPADGDIETQRQYYLLERRFWNADAPSMTTRTCAVPTPYGDVTTRLYSPQPTSQATLYYLHGGGFILGNLDTHDRIMRLLARYTGCTVIGIDYSLSPQARYPQAIEETVAVCSYFSQHADEYSLNVEKIGFAGDSAGAMLALASALWLRDKHIRCGNVIAILLWYGLYGLQDSVSRRLFGGAWDGLTREDLDMYEKAYLRNDEDRESPWYCLFNNDLTRDVPPCFIASAEFDPLIDDSRLLHQTLQAHQQPCEYKMYPGTLHAFLHYSRMMTIADDALQDGARFFMARMKTPR | soluble
25 | SNAMKRSIEDTPIVLIGAGNLATNLAKALYRKGFRIVQVYSRTEESARELAQKVEAEYTTDLAEVNPYAKLYIVSLKDSAFAELLQGIVEGKREEALMVHTAGSIPMNVWEGHVPHYGVFYPMQTFSKQREVDFKEIPFFIEASSTEDAAFLKAIASTLSNRVYDADSEQRKSLHLAAVFTCNFTNHMYALAAELLKKYNLPFDVMLPLIDETARKVHELEPKTAQTGPAIRYDENVIGNHLRMLADDPAMQRLYELLSRSIHERQ | soluble
